From US20070134249A1 (GENITOPE, published 2007)

Tests used:
[1] = target: T1, 647; test: ELISA; design: key to grade: 0 = <0.5 OD, 1 = 0.5-1.0 OD, 4 = 1-4 OD
T1 construct: fully human Id protein; also called PIN647
Description: (§1) Before specificity screening, all of the clonal immunogen-positive hybridoma supernatants were re-screened on the immunogen, a non-family member Id protein, and KLH, if animals were immunized with Id protein that has been conjugated KLH. As described above, this screen identifies HC-specific clones but not mAbs against the light chain constant region. Clones identified positive to the immunogen and KLH were […]. Those found positive to the immunogen but not to the non-family member Id protein or KLH were tittered on the immunogen. In addition to normalizing for different binding affinities and concentrations, each hybridoma supernatant was titered on the fully human form of the Id protein used as the immunogen(s) for the V regions. The titer or dilution resulting in an ELISA absorbance of 2.5 to 3 OD after 30 min. incubation time was then used. Hybridoma specificity was determined by screening against available Id proteins expressing the same HV and KV or LV as well as different HV, KV and LV. The final ELISA results are expressed as follows: 0 (<0.5 OD), 1 (0.5-1.0 OD), or 4 (1-4 OD). Positive hybridoma supernatants are categorized according to specificity: anti-Id, anti-constant region (HC, KC or LC), or V region (HV, KV, LV family or family member).
(§2) In general, the fully human Id protein or proteins containing the immunogen V regions were coated onto 96-well ELISA plates at 2.5-5 ug/mL in carbonate buffer pH 9.6 and incubated at 4° C. for up to 14 days. On the day of the ELISA, plates were brought to RT and blocked with Tris-Tween-20, pH 7.6 for 15-60 min. at RT. Following a NaCl and Triton X-100 wash, diluted hybridoma cell culture supernatants were incubated overnight at 4° C. Hybridoma supernatant dilutions ranged from 1:2 to 1:25 and were prepared in PBS with 5% BSA. Plates were washed and incubated with HRP-conjugated goat anti-mouse IgG-specific detecting antibody. A chromogenic substrate (TMB) was used to measure the amount of mouse antibody bound to each well. The reaction was stopped at or before 30 minutes with IN H2SO4 and plates were read immediately. Absorbency readings at 450 nm ranging between 0-4 OD and using Molecular Devices plate reader and SOFTMAX PRO software.

[2] = target: T2, 710; test: ELISA; design: key to grade: 0 = <0.5 OD, 1 = 0.5-1.0 OD, 4 = 1-4 OD
T2 construct: H1-8 L2-8; also called PIN710
Description: as §1, §2

[3] = target: T3, 552; test: ELISA; design: key to grade: 0 = <0.5 OD, 1 = 0.5-1.0 OD, 4 = 1-4 OD
T3 construct: H1-18 L2-8; also called PIN552
Description: as §1, §2

[4] = target: T4, PIN574 fully human Id protein (HV4-39 / LV1-40) (human); test: ELISA; design: key to grade: 0 = <0.5 OD, 1 = 0.5-1.0 OD, 4 = 1-4 OD
T4 construct: Recombinant patient-derived idiotype immunoglobulin used as antigen, fully human form; also called Immunogen (for 20H5); not shown: human immunoglobulin heavy chain constant region, isotype G3 (HCG3); human immunoglobulin lambda light chain constant region (LC)
T4 sequence (VH, as listed by the source, chain 1 of 2): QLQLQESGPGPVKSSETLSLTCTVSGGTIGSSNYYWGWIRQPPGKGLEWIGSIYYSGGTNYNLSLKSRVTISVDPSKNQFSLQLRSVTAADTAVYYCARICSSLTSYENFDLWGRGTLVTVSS
T4 sequence (VL, as listed by the source, chain 2 of 2): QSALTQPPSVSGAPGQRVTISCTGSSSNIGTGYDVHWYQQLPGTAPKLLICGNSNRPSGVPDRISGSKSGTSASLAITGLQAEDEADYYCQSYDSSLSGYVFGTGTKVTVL
Description: as §1, §2

[5] = target: T5, 625; test: ELISA; design: key to grade: 0 = <0.5 OD, 1 = 0.5-1.0 OD, 4 = 1-4 OD
T5 construct: H4-61 L2-8; also called PIN625
Description: as §1, §2

[6] = target: T6, 662; test: ELISA; design: key to grade: 0 = <0.5 OD, 1 = 0.5-1.0 OD, 4 = 1-4 OD
T6 construct: fully human Id protein; also called PIN662
T6 sequence (heavy, as listed by the source): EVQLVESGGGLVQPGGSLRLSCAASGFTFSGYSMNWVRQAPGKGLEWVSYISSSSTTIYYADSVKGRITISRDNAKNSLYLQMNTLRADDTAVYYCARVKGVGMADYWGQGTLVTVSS
Description: as §1, §2

[7] = target: T7, 116; test: ELISA; design: key to grade: 0 = <0.5 OD, 1 = 0.5-1.0 OD, 4 = 1-4 OD
T7 construct: fully human Id protein; also called PIN116
T7 sequence (VH, as listed by the source, chain 1 of 2): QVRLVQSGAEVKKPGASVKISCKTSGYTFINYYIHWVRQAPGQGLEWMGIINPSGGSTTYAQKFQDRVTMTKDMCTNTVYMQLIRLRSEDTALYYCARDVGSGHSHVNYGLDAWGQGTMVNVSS
T7 sequence (V domain, as listed by the source, chain 2 of 2): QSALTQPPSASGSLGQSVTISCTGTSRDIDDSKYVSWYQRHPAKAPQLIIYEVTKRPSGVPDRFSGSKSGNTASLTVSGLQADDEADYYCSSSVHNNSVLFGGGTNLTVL
Description: as §1, §2

[8] = target: T8, 787; test: ELISA; design: key to grade: 0 = <0.5 OD, 1 = 0.5-1.0 OD, 4 = 1-4 OD
T8 construct: also called PIN787
Description: as §1, §2

[9] = target: T9, 746; test: ELISA; design: key to grade: 0 = <0.5 OD, 1 = 0.5-1.0 OD, 4 = 1-4 OD
T9 construct: H4-39 L2-8; also called PIN746
Description: as §1, §2

[10] = target: T10, 604; test: ELISA; design: key to grade: 0 = <0.5 OD, 1 = 0.5-1.0 OD, 4 = 1-4 OD
T10 construct: H4-34 L2-8; also called PIN604
Description: as §1, §2

[11] = target: T11, 559; test: ELISA; design: key to grade: 0 = <0.5 OD, 1 = 0.5-1.0 OD, 4 = 1-4 OD
T11 construct: H3-15 L2-23; also called PIN559
Description: as §1, §2

[12] = target: T12, PIN149 fully human Id protein (HV3-23 / KV4-1) (human); test: SPR (BIACORE 2000); mAb captured on anti-mouse surface, fully human Id protein as analyte
T12 construct: Recombinant patient-derived idiotype immunoglobulin used as antigen; also called PIN149 Id protein; Immunogen (for 3C9, 6C9, 10H7, 15E1); not shown: human immunoglobulin heavy chain constant region, isotype G3 (HCG3); human immunoglobulin kappa light chain constant region (KC)
T12 sequence (VH, as listed by the source, chain 1 of 2): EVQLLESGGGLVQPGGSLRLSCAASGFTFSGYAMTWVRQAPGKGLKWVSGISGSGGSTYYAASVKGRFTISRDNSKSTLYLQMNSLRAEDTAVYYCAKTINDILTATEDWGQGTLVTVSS
T12 sequence (VL, as listed by the source, chain 2 of 2): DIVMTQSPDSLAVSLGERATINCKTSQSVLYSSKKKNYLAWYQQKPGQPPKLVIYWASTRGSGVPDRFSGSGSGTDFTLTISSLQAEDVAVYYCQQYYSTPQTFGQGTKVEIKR
Experimental: (§3) Binding constants were also determined for three of the sequenced clones (3C9, 10H7, and 20H5), as well as for two additional clones (6C9 and 15E1). The association and disassociation rates were measured by surface plasmon resonance using a BIACORE 2000 machine.
(§4) In addition, based on ELISA results, PIN185 was used as a positive control Id protein for 10H7 and 15E1 and a negative control Id protein for 3C9 and 6C9 and PIN149 was used as a non-binding Id protein for 20H5. Each mAb was captured onto an anti-mouse surface and tested for binding to the fully human Id protein. Following the mAb capture phase of the assay for the (@2 ug/ml), the fully human Id proteins were all diluted to a starting concentration of 250 nM and tested in a three fold dilution series. Each concentration was tested in duplicate. The running buffer contained PBS plus 0.005% tween-20 and 0.1 mg/ml BSA as a carrier. Binding data were collected at 25° C. […] The other data sets all fit well to a single site interaction model.

[13] = target: T4, PIN574 fully human Id protein (HV4-39 / …); test: SPR (BIACORE 2000); mAb captured on anti-mouse surface, fully human Id protein as analyte, 25 C
Experimental: as §3, §4

T1 sequence (VH, as listed by the source, chain 1 of 2): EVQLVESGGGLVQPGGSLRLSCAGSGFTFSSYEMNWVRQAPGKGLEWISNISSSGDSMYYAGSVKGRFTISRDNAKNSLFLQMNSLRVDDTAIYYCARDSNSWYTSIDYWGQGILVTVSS
T1 sequence (VL, as listed by the source, chain 2 of 2): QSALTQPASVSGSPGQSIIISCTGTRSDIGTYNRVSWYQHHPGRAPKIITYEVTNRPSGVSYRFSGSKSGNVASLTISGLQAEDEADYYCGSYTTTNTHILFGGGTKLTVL

Row | binding result [1] | grade [2] | grade [3] | binding result [4] | grade [5] | grade [6] | grade [7] | grade [8] | grade [9] | grade [10] | grade [11] | binding result [12] | Kd [13] [nM] | koff [13] [s⁻¹] | kon [13] [M⁻¹ s⁻¹] | Binder
1 | no binding | 4 | 4 | no binding | 4 | 4 | 4 | 1 | 4 | 4 | 4 |  |  |  |  | mAb clone 15E8 (antibody, V domains shown, Mouse hybridoma mAb, fusion 16 (immunogen PIN116)) VH: QVQLQQPGAELVMPGASVKMSCKASGYTFTDYWMHWVKQRPGQGLEWIGTIDTSDSYTNYNQKFKGKATLTVDESSSTAYMQLSSLTSEDSAVYYCVRWKKYGNYFFDYWGQGTTLTVSS VL: DIVMTQSHKFMSTSVGDRVSITCKASQDVNTAVAWYQQKPGQSPKLLIYWASTRHTGVPDRFTGSGSGTDFSLTISSVQAEDLGLYYCQQCYSTPYAFGGGTKLEIKR
2 |  |  |  |  |  |  |  |  |  |  |  | no binding | 1.92 | 0.000146 | 75900 | mAb clone 20H5 (antibody, V domains shown, Mouse hybridoma mAb, fusion 10 (immunogen fully human PIN574 Id protein)) VH: QVQLKESGPDLVAPSQSLSITCTVSGFSLTSYGVHWVRQPPGKGLEWLVVIWSDGSTTNNSPLKSRLSISKDNSKSQVFLKMNSLQTDDTAMYYCARHWGTTVVDAMDYWGQGTSVTVSS VL: DIQMTQTTSSLSASLGDRVIISCRASQDIRNYLNWYQQKPDGTVKLLIYYTSQLHSGVPSRFSGSGSGTDYSLTINNLSEQEDIATYFCQQYDTLPWTFGGGTKLEIKR
